The source of these data is patent US6156557A, “Alkaline protease from streptomyces sp. and method for preparing the same” (Toto Ltd., priority 1998, dated 2000).

The test system of data set [1] is alkaline protease. It counts as biochemical, Streptomyces sp. TOTO-9305. To be noted: for Residual Activity: pH 9.
In data set [2] the test system is casein. As to conditions: known alkaline proteases, values from References 1-3; cited from earlier work.
The subject of data set [3] is keratin. To be noted: known alkaline proteases, values from Reference 3; cited from earlier work.
The subject of data set [4] is casein. To be noted: known alkaline proteases, values from References 1-3; cited from earlier work. This is another data set of the same source.
For data set [5] the following is noted: known alkaline proteases, values from References 1-3; cited from earlier work.
The conditions of data set [6]: known alkaline proteases, values from References 1-3; cited from earlier work. This is another data set of the same source.

Regarding `O=C(O)CN(CCN(CC(=O)O)CC(=O)O)CC(=O)O` [EDTA, ethylene-diaminetetraacetic acid], in data set [1], the “inhibition of the activity of the enzyme (in words)” value (shortened to “inhibition”) is reported as “not inhibited” and the “Residual Activity” value was 91.

With `O=C(O)CI` [Iodoacetic Acid, iodoacetic acid], in data set [1], the “inhibition” value is reported as “not inhibited” and the “Residual Activity” value is recorded as 96.

Turning to `O=C(O)c1cc[c]([Hg][Cl])cc1` [PCMB, p-chloromercuribenzoate], in data set [1], the “inhibition” value is “not inhibited” and the “Residual Activity” value turned out to be 91.

`O=S(=O)(F)Cc1ccccc1` [PMSF, phenyl methanesulfonyl fluoride]: in data set [1], the “inhibition” value was “inhibited” and the “Residual Activity” value stood at 0.

As for `CCCCCCCCCCCCOS(=O)(=O)[O-].[Na+]` [SDS, sodium dodecylsulfate], in data set [1], the “inhibition” value was “slightly inhibited” and the “Residual Activity” value stood at 74.

B1: Subtilisin BPN^1: conventional alkaline protease, subtilisin BPN (protein, UniProt P00782 108-382, looked up)
Subtilisin BPN': AQSVPYGVSQIKAPALHSQGYTGSNVKVAVIDSGIDSSHPDLKVAGGASMVPSETNPFQDNNSHGTHVAGTVAALNNSIGVLGVAPSASLYAVKVLGADGSGQYSWIINGIEWAIANNMDVINMSLGGPSGSAALKAAVDKAVASGVVVVAAAGNEGTSGSSSTVGYPGKYPSVIAVGAVDSSNQRASFSSVGPELDVMAPGVSIQSTLPGNKYGAYNGTSMASPHVAGAAALILSKHPNWTNTQVRSSLENTTTKLGDSFYYGKGLINVQAAAQ
For B1, the “Specific Activity: Casein” value in data set [2] was 2,200 U/mg protein. Also, the “Specific Activity: Keratin” value in data set [3] is 436 U/mg protein. Also, in data set [4], the “Optimum pH: Casein” value is 10.5. Also, the “Isoelectric Point” value in data set [5] is on record as 7.8.

B2: Subtilisin B. subtilis: conventional alkaline protease, subtilisin of B. subtilis (protein, UniProt P04189 107-381, looked up)
Subtilisin E: AQSVPYGISQIKAPALHSQGYTGSNVKVAVIDSGIDSSHPDLNVRGGASFVPSETNPYQDGSSHGTHVAGTIAALNNSIGVLGVAPSASLYAVKVLDSTGSGQYSWIINGIEWAISNNMDVINMSLGGPTGSTALKTVVDKAVSSGIVVAAAAGNEGSSGSTSTVGYPAKYPSTIAVGAVNSSNQRASFSSAGSELDVMAPGVSIQSTLPGGTYGAYNGTSMATPHVAGAAALILSKHPTWTNAQVRDRLESTATYLGNSFYYGKGLINVQAAAQ
Turning to B2, in data set [2], the “Specific Activity: Casein” value is 2,900 U/mg protein. Moreover, in data set [4], the “Optimum pH: Casein” value is reported as 10.5. Also, the “Optimum Temp.” value in data set [6] is 55 °C. Also, the “Isoelectric Point” value in data set [5] is 7.5-8.0.

B3: Subtilisin Carlsberg: conventional alkaline protease, subtilisin Carlsberg (protein, UniProt P00780 106-379, looked up)
Subtilisin Carlsberg: AQTVPYGIPLIKADKVQAQGFKGANVKVAVLDTGIQASHPDLNVVGGASFVAGEAYNTDGNGHGTHVAGTVAALDNTTGVLGVAPSVSLYAVKVLNSSGSGSYSGIVSGIEWATTNGMDVINMSLGGASGSTAMKQAVDNAYAKGVVVVAAAGNSGSSGNTNTIGYPAKYDSVIAVGAVDSNSNRASFSSVGAELEVMAPGAGVYSTYPTNTYATLNGTSMASPHVAGAAALILSKHPNLSASQVRNRLSSTATYLGSSFYYGKGLINVEAAAQ
On to B3, for which, in data set [2], the “Specific Activity: Casein” value is reported as 6,500 U/mg protein. Besides, in data set [3], the “Specific Activity: Keratin” value is 888 U/mg protein. Besides, the “Optimum pH: Casein” value in data set [4] is recorded as 10.5. Further, the “Optimum Temp.” value in data set [6] is 50 °C. For the same molecule, the “Isoelectric Point” value in data set [5] was 9.8.
